The supplement of paper PMC7877785
± gives the uncertainty stated by the source.

Experiment: self-splicing fitness, log relative to wild type (ln ratio); higher = more splicing; Tetrahymena group I intron in knt gene, E. coli kanamycin selection, DiMSum; sequences stand for … in CUCUCU…GGAGGGAAAAGUUAUCAGGCAUGCACCUGGUAGCUAGUCUUUAAACCAAUAGAUUGCAUCGGUUUAAAAGGCAAGACCGUCAAAUUGCGGGAAAGGGGUCAACAGCCGUUCAGUACCAAGUCUCAGGGGAAACUUUGAGAUGGCCUUGCAAAGGGUAUGGUAAUAAGCUGACGGACAUGGUCCUAACCACGCAGCCAAGUCCUAAGUCAACAGAUCUUCUGUUGAUAUGGAUGCAGUUCACAGACUAAAUGUCGGUCGGGGAAGAUGUAUUCUUCUCAUAAGAUAUAGUCGGACCUCUCCUUAAUGGGAGCUAGCGGAUGAAGUGAUGCAACACUGGAGCCGCUGGGAACUAAUUUGUAUGCGAAAGUAUAUUGAUUAGUUUUGGAGUACUCGUGGUCG
How it was run: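 The eight P1ex-region nucleotides of an intron in the knt kanamycin-resistance gene on pET-22b(+) were all randomised and the library put into E. coli BL21(DE3). Six replicate transformations were grown overnight at 37°C or 30°C on LB agar with or without 25 μg/mL kanamycin, together with 100 μg/mL carbenicillin, 50 μM IPTG and 0.2% rhamnose. Colonies were pooled and amplicon-sequenced on an Illumina HiSeq 2500. Fitness from DiMSum is the error-weighted combination of wild-type-normalised replicate fold changes, kanamycin over none.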

Sequence | self-splicing fitness (ln) (30 °C) | self-splicing fitness (ln) (37 °C)
GCGCAGCAAUAUUACGAUCG | -1.61 ± 0.11 | 0.00803 ± 0.12
AGAUAGCAAUAUUACGAAGC |  | -1.5 ± 0.28
AUUCAGCAAUAUUACGUACG | -1.91 ± 0.087 | -0.205 ± 0.1
AUCCAGCAAUAUUACGUCUG | -3.67 ± 0.23 | -2.55 ± 0.25
GGCGAGCAAUAUUACGAGUG | -1.67 ± 0.19 | -1.47 ± 0.3
GGAGAGCAAUAUUACGGACU | -1.52 ± 0.13 | -0.526 ± 0.17
GGUGAGCAAUAUUACGGGAG | -1.79 ± 0.28 | -2.68 ± 0.48
GUUAAGCAAUAUUACGGGAU | -2.31 ± 0.14 | -0.169 ± 0.14
GUUGAGCAAUAUUACGUCAC | -3.41 ± 0.43 | -1.86 ± 0.23
GCCCAGCAAUAUUACGAAGC | -2.36 ± 0.19 | -0.479 ± 0.2
CACUAGCAAUAUUACGUUAC | -3.4 ± 0.14 | -2.77 ± 0.16
GCAGAGCAAUAUUACGGACG |  | -2.96 ± 0.29
CGCGAGCAAUAUUACGGCGG | -1.64 ± 0.12 | -0.636 ± 0.17
UCAGAGCAAUAUUACGCAUG | -3.13 ± 0.3 | -2.02 ± 0.21
AUGUAGCAAUAUUACGAAGU | -3.07 ± 0.23 | -0.943 ± 0.18
CUGAAGCAAUAUUACGGGGU | -3.34 ± 0.24 | -0.289 ± 0.17
AGUAAGCAAUAUUACGCGUC | -3.37 ± 0.19 | -2.2 ± 0.17
AGGCAGCAAUAUUACGAUCA | -0.829 ± 0.13 | -0.234 ± 0.15
GGGUAGCAAUAUUACGCAAU | -1.79 ± 0.31 | -1.47 ± 0.39
UGAUAGCAAUAUUACGCAGG | -3.38 ± 0.24 | -2.27 ± 0.36
CCCGAGCAAUAUUACGUAGC | -3.06 ± 0.24 | -2.49 ± 0.33
AGCAAGCAAUAUUACGAUGU | -1.92 ± 0.068 | -0.392 ± 0.076
GCGUAGCAAUAUUACGCUGG | -2 ± 0.18 | -2.12 ± 0.32
GCAGAGCAAUAUUACGGGCA | -2.97 ± 0.17 | -1.67 ± 0.15
CAGAAGCAAUAUUACGGAGC | -3.14 ± 0.34 | -2.32 ± 0.31

Sequence | self-splicing fitness (ln) (30 °C) | self-splicing fitness (ln) (37 °C)
CUCUAGCAAUAUUACGACUU |  | -3.23 ± 0.31
CCAAAGCAAUAUUACGUGAC | -4.61 ± 0.32 | -2.12 ± 0.26
UCAUAGCAAUAUUACGACGG | -0.375 ± 0.11 | -0.184 ± 0.13
CUCCAGCAAUAUUACGUCCU | -3.42 ± 0.28 | -3.01 ± 0.38
ACAGAGCAAUAUUACGGCAA | -0.636 ± 0.22 | -2.08 ± 0.33
ACAAAGCAAUAUUACGCGCU | -0.245 ± 0.053 | 0.00495 ± 0.066
GAUAAGCAAUAUUACGGCCU | -0.624 ± 0.08 | -0.592 ± 0.11
CUCCAGCAAUAUUACGACGG | -3.56 ± 0.23 | -2.42 ± 0.24
ACCUAGCAAUAUUACGGGUC | -4.05 ± 0.23 | -2.57 ± 0.23
GGAGAGCAAUAUUACGCGCG | -2.27 ± 0.11 | -1.26 ± 0.13
UACAAGCAAUAUUACGGUUA | -0.0426 ± 0.052 | -0.221 ± 0.063
UCCAAGCAAUAUUACGGACC | -2.63 ± 0.36 | -0.119 ± 0.18
ACGGAGCAAUAUUACGCUAA |  | 0.642 ± 0.24
GCAUAGCAAUAUUACGUGCU | -3.32 ± 0.15 | -3.44 ± 0.26
UUUGAGCAAUAUUACGCAUC | -3.03 ± 0.28 | -2.39 ± 0.38
UGUUAGCAAUAUUACGGUUG | -1.78 ± 0.14 | -1.2 ± 0.15
UUAGAGCAAUAUUACGUUCA | -0.27 ± 0.14 | -0.536 ± 0.17
AUUAAGCAAUAUUACGGCCA | -0.171 ± 0.12 | -0.598 ± 0.12
UGUGAGCAAUAUUACGAUCC | -2.29 ± 0.31 | -1.87 ± 0.39
ACGGAGCAAUAUUACGCAGC | -3.02 ± 0.3 | 
UCUCAGCAAUAUUACGCUCA |  | -1.48 ± 0.43
GGUUAGCAAUAUUACGAAGU | -0.268 ± 0.2 | -0.745 ± 0.18
UGAGAGCAAUAUUACGGGUU | -2.45 ± 0.24 | -2.85 ± 0.31
UGUAAGCAAUAUUACGGGAA | -2.12 ± 0.17 | -2.08 ± 0.18
AAUCAGCAAUAUUACGCCGG | -1.15 ± 0.086 | -0.932 ± 0.099

Sequence | self-splicing fitness (ln) (30 °C) | self-splicing fitness (ln) (37 °C)
AGGUAGCAAUAUUACGCCAA | -1.19 ± 0.02 | -0.512 ± 0.035
GAGGAGCAAUAUUACGAUGC | -2.85 ± 0.26 | -1.21 ± 0.21
ACUUAGCAAUAUUACGACAG | -0.902 ± 0.08 | 0.0363 ± 0.1
AGUAAGCAAUAUUACGCAAC |  | -2.61 ± 0.38
AUGCAGCAAUAUUACGACAA | -0.348 ± 0.075 | -0.366 ± 0.093
UAACAGCAAUAUUACGACUU | -0.586 ± 0.084 | 0.316 ± 0.11
CAGCAGCAAUAUUACGGUAC | -3.46 ± 0.14 | -2.26 ± 0.14
CCUGAGCAAUAUUACGGACG | -2.49 ± 0.16 | -0.682 ± 0.12
AUCAAGCAAUAUUACGAGGU | -3.52 ± 0.2 | -3.4 ± 0.33
UAAUAGCAAUAUUACGAUCC | -3.33 ± 0.44 | 
UCAAAGCAAUAUUACGACAA | -1.96 ± 0.19 | -1.22 ± 0.14
GGGAAGCAAUAUUACGAGGC | -3.08 ± 0.29 | -1.4 ± 0.2
GCACAGCAAUAUUACGACCG | -1.14 ± 0.098 | 0.0916 ± 0.15
ACUCAGCAAUAUUACGCGGU | -3.73 ± 0.19 | -2.01 ± 0.21
AAGCAGCAAUAUUACGGCAG | -1.31 ± 0.065 | -0.525 ± 0.087
CUAGAGCAAUAUUACGCCCA | -3.13 ± 0.33 | 
GUGUAGCAAUAUUACGACGC | -1.8 ± 0.18 | -0.0871 ± 0.22
CGAAAGCAAUAUUACGUCCG | -1.22 ± 0.088 | -0.637 ± 0.12
GAUGAGCAAUAUUACGUGUU | -3.72 ± 0.31 | -2.47 ± 0.27
GCUAAGCAAUAUUACGUGGA | -2 ± 0.093 | -1.7 ± 0.092
UGCUAGCAAUAUUACGACAA | -1.15 ± 0.13 | -0.207 ± 0.14
UUUAAGCAAUAUUACGGUUU | -2.53 ± 0.28 | -1.51 ± 0.22
AGACAGCAAUAUUACGGGUC | -3.04 ± 0.18 | -2.92 ± 0.31
GUGUAGCAAUAUUACGUUGU | -3.02 ± 0.28 | -2.17 ± 0.21
ACCCAGCAAUAUUACGAACU | -1.33 ± 0.11 | -0.29 ± 0.13

Sequence | self-splicing fitness (ln) (30 °C) | self-splicing fitness (ln) (37 °C)
AGCUAGCAAUAUUACGGAUG | -2.3 ± 0.082 | -0.891 ± 0.095
CCAAAGCAAUAUUACGGGAG | -3.08 ± 0.18 | -2.78 ± 0.26
AUACAGCAAUAUUACGUUGC | -4.31 ± 0.28 | -2.21 ± 0.35
GGACAGCAAUAUUACGCUCA | -0.215 ± 0.12 | -0.136 ± 0.15
UCUAAGCAAUAUUACGGUAG | -2.09 ± 0.11 | -0.881 ± 0.11
GUUUAGCAAUAUUACGCGAA | -3.53 ± 0.49 | -2.01 ± 0.22
UGAGAGCAAUAUUACGAGUC |  | -3.22 ± 0.47
CCGCAGCAAUAUUACGUGGU | -3.29 ± 0.13 | -2.25 ± 0.13
CCGCAGCAAUAUUACGUCUG | -3.34 ± 0.17 | -3.13 ± 0.18
GAUUAGCAAUAUUACGCUGU | -2.84 ± 0.28 | -1.74 ± 0.31
CAUGAGCAAUAUUACGACUA | -2.06 ± 0.27 | 
GAUGAGCAAUAUUACGCAUA | -2.68 ± 0.21 | -1.98 ± 0.21
CCUUAGCAAUAUUACGUCAG | -3.79 ± 0.35 | -2.74 ± 0.31
UGUGAGCAAUAUUACGGGAU | -4.32 ± 0.41 | -2.17 ± 0.38
UGGUAGCAAUAUUACGCAUU | -1.88 ± 0.15 | -1.66 ± 0.19
UCGCAGCAAUAUUACGCCCU | -1.18 ± 0.13 | -0.902 ± 0.15
GCUAAGCAAUAUUACGGGUU | -2.18 ± 0.09 | -1.28 ± 0.089
AACAAGCAAUAUUACGGGGC |  | -2.18 ± 0.23
GGCCAGCAAUAUUACGUAUC | -0.633 ± 0.069 | -0.494 ± 0.081
AUUGAGCAAUAUUACGCCAC | -1.44 ± 0.42 | 
AAAAAGCAAUAUUACGACCU | 0.273 ± 0.072 | 0.617 ± 0.089
GCUGAGCAAUAUUACGGAGC | -3.49 ± 0.18 | -1.7 ± 0.16
CUGCAGCAAUAUUACGUCUG | -2.34 ± 0.16 | -0.738 ± 0.17
UAUGAGCAAUAUUACGGUUG | -4.24 ± 0.43 | -2.38 ± 0.45
